Data taken from the Immune Epitope Database (IEDB).
pIC50, pKd: −log10 of the molar value.

Key:
HLA-C*06:02 = assay: IEDB peptide-MHC binding, purified MHC/direct/fluorescence; filed as Kd, often an IC50 or EC50 that approximates it; ≥ and ≤ were set here for values at or beyond the usual limits of such assays; conditions: source organism: human gammaherpesvirus 4
HLA-B*27:20 = assay: IEDB peptide-MHC binding, purified MHC/competitive/fluorescence; filed as Kd, often an IC50 or EC50 that approximates it; ≥ and ≤ were set here for values at or beyond the usual limits of such assays
HLA-B*15:42 = assay: as above
HLA-B*45:06 = assay: as above
HLA-B*83:01 = assay: as above
HLA-B*15:02 = assay: as above; conditions: source organism: Vibrio vulnificus CMCP6
HLA-B*73:01 = assay: as above
HLA-A*69:01 = assay: IEDB peptide-MHC binding, purified MHC/direct/fluorescence; filed as Kd, often an IC50 or EC50 that approximates it; ≥ and ≤ were set here for values at or beyond the usual limits of such assays
HLA-A*02:01 [1] = assay: as above
HLA-A*02:50 = assay: IEDB peptide-MHC binding, purified MHC/competitive/fluorescence; filed as Kd, often an IC50 or EC50 that approximates it; ≥ and ≤ were set here for values at or beyond the usual limits of such assays
HLA-B*40:01 = assay: IEDB peptide-MHC binding, purified MHC/direct/fluorescence; filed as Kd, often an IC50 or EC50 that approximates it; ≥ and ≤ were set here for values at or beyond the usual limits of such assays
HLA-B*27:05 = assay: as above; conditions: source organism: Giardia lamblia ATCC 50803
HLA-B*48:01 = assay: as above
HLA-A*30:01 = assay: as above; conditions: source organism: Giardia lamblia ATCC 50803
HLA-A*01:01 = assay: as above
HLA-A*11:01 = assay: as above
HLA-A*31:01 = assay: as above
HLA-B*51:01 [2] = assay: as above; conditions: source organism: Giardia lamblia ATCC 50803
HLA-B*15:09 = assay: as above; conditions: source organism: Giardia lamblia ATCC 50803
HLA-B*46:01 = assay: as above
HLA-A*03:01 = assay: as above
HLA-A*26:01 = assay: as above; conditions: source organism: Giardia lamblia ATCC 50803
HLA-B*57:01 = assay: as above
HLA-B*07:02 = assay: as above
HLA-B*08:01 = assay: as above
HLA-B*58:01 = assay: as above
HLA-B*15:01 = assay: as above
HLA-B*18:01 = assay: as above
HLA-B*15:17 = assay: as above
HLA-A*29:02 = assay: as above; conditions: source organism: Sudan ebolavirus
HLA-A*68:23 = assay: IEDB peptide-MHC binding, purified MHC/competitive/fluorescence; filed as Kd, often an IC50 or EC50 that approximates it; ≥ and ≤ were set here for values at or beyond the usual limits of such assays; conditions: source organism: Sudan ebolavirus
HLA-A*68:02 = assay: IEDB peptide-MHC binding, purified MHC/direct/fluorescence; filed as Kd, often an IC50 or EC50 that approximates it; ≥ and ≤ were set here for values at or beyond the usual limits of such assays; conditions: source organism: Camelpox virus M-96
HLA-A*26:02 = assay: as above; conditions: source organism: Variola virus
HLA-B*08:03 = assay: as above; conditions: source organism: Variola virus
HLA-A*02:03 = assay: IEDB peptide-MHC binding, purified MHC/competitive/fluorescence; filed as Kd, often an IC50 or EC50 that approximates it; ≥ and ≤ were set here for values at or beyond the usual limits of such assays; conditions: source organism: Vaccinia virus Copenhagen
HLA-A*02:01 [3] = assay: as above; conditions: source organism: Vaccinia virus Copenhagen
HLA-A*26:03 = assay: as above; conditions: source organism: Vaccinia virus Copenhagen
HLA-A*02:19 = assay: IEDB peptide-MHC binding, purified MHC/direct/fluorescence; filed as Kd, often an IC50 or EC50 that approximates it; ≥ and ≤ were set here for values at or beyond the usual limits of such assays; conditions: source organism: Coxiella burnetii Q321
HLA-B*51:01 [4] = assay: IEDB peptide-MHC binding, purified MHC/competitive/fluorescence; ≥ and ≤ were set here for values at or beyond the usual limits of such assays; conditions: source organism: Taeniopygia guttata
HLA-A*02:01 [5] = assay: as above; conditions: source organism: Taeniopygia guttata
[6] = source organism: human gammaherpesvirus 4
[7] = source organism: Listeria monocytogenes HPB2262
[8] = source organism: Mycobacterium tuberculosis
[9] = source organism: Giardia lamblia ATCC 50803
[10] = source organism: Sudan ebolavirus
[11] = source organism: Camelpox virus M-96
[12] = source organism: Coxiella burnetii
[13] = source organism: Mycobacterium tuberculosis H37Ra

RRYASQTEL
pKd (HLA-C*06:02): 7.68 | pKd (HLA-B*27:20; [6]): 9.70 | pKd (HLA-B*15:42; [6]): ≤ 5.30 | pKd (HLA-B*45:06; [6]): ≤ 5.30 | pKd (HLA-B*83:01; [6]): ≤ 5.30

AMRVGSSIM
pKd (HLA-B*15:02): 6.93

FETMVFPAV
pKd (HLA-B*73:01; [7]): ≤ 5.30 | pKd (HLA-B*15:42; [7]): ≤ 5.30 | pKd (HLA-B*45:06; [7]): ≤ 5.30 | pKd (HLA-B*83:01; [7]): ≤ 5.30

LLYEVDGDV
pKd (HLA-A*69:01; [8]): ≤ 4.70 | pKd (HLA-A*02:01 [1]; [8]): ≤ 4.70 | pKd (HLA-A*02:50; source organism: Mycobacterium tuberculosis variant bovis BCG str. Pasteur 1173P2): 5.95

RPALVVDTP
pKd (HLA-B*40:01; [9]): ≤ 4.70 | pKd (HLA-B*27:05): ≤ 4.70 | pKd (HLA-A*69:01; [9]): ≤ 4.70 | pKd (HLA-B*48:01; [9]): ≤ 4.70 | pKd (HLA-A*30:01): ≤ 4.70 | pKd (HLA-A*01:01; [9]): ≤ 4.70 | pKd (HLA-A*11:01; [9]): ≤ 4.70 | pKd (HLA-A*31:01; [9]): ≤ 4.70 | pKd (HLA-B*51:01 [2]): ≤ 4.70 | pKd (HLA-B*15:09): ≤ 4.70 | pKd (HLA-B*46:01; [9]): ≤ 4.70 | pKd (HLA-A*03:01; [9]): ≤ 4.70 | pKd (HLA-A*02:01 [1]; [9]): ≤ 4.70 | pKd (HLA-A*26:01): ≤ 4.70 | pKd (HLA-B*57:01; [9]): ≤ 4.70 | pKd (HLA-B*07:02; [9]): ≤ 4.70 | pKd (HLA-B*08:01; [9]): ≤ 4.70 | pKd (HLA-B*58:01; [9]): ≤ 4.70 | pKd (HLA-B*15:01; [9]): ≤ 4.70 | pKd (HLA-B*18:01; [9]): ≤ 4.70 | pKd (HLA-B*15:17; [9]): ≤ 4.70

CTSSIQYHR
pKd (HLA-A*29:02): 5.84 | pKd (HLA-A*01:01; [10]): ≤ 4.70 | pKd (HLA-A*68:23): 8.42 | pKd (HLA-B*15:42; [10]): ≤ 5.30 | pKd (HLA-B*45:06; [10]): ≤ 5.30 | pKd (HLA-B*83:01; [10]): ≤ 5.30

KRPYVFVAA
pKd (HLA-B*73:01; source organism: Yersinia enterocolitica subsp. enterocolitica 8081): 7.16

GLYRLNFRR
pKd (HLA-B*40:01; [11]): ≤ 4.70 | pKd (HLA-A*69:01; [11]): ≤ 4.70 | pKd (HLA-A*68:02): ≤ 4.70 | pKd (HLA-B*48:01; [11]): ≤ 4.70 | pKd (HLA-A*01:01; [11]): ≤ 4.70 | pKd (HLA-A*11:01; [11]): 6.63 | pKd (HLA-A*31:01; [11]): 8.77 | pKd (HLA-A*26:02): ≤ 4.70 | pKd (HLA-B*46:01; [11]): ≤ 4.70 | pKd (HLA-A*03:01; [11]): 6.62 | pKd (HLA-B*08:03): ≤ 4.70 | pKd (HLA-B*57:01; [11]): ≤ 4.70 | pKd (HLA-B*07:02; [11]): ≤ 4.70 | pKd (HLA-B*08:01; source organism: Variola virus): ≤ 4.70 | pKd (HLA-B*58:01; [11]): ≤ 4.70 | pKd (HLA-B*15:01; [11]): ≤ 4.70 | pKd (HLA-B*18:01; [11]): ≤ 4.70 | pKd (HLA-B*15:17; [11]): ≤ 4.70 | pKd (HLA-A*02:03): ≤ 4.70 | pKd (HLA-A*02:01 [3]): 6.02 | pKd (HLA-A*26:03): ≤ 4.70

YQLGDYFFV
pKd (HLA-A*69:01; [12]): 8.89 | pKd (HLA-A*02:19): 8.70 | pKd (HLA-A*02:01 [1]; [12]): 8.82 | pKd (HLA-A*02:50; source organism: Coxiella burnetii Dugway 5J108-111): ≥ 10.00

FLLPILSQI
pIC50 (HLA-B*51:01 [4]): ≤ 4.70 | pIC50 (HLA-A*02:01 [5]): 7.28

LEMQHLISL
pKd (HLA-B*40:01; [8]): 7.86 | pKd (HLA-B*27:20; [13]): 5.96 | pKd (HLA-B*15:42; [13]): ≤ 5.30 | pKd (HLA-B*45:06; [13]): ≤ 5.30
